Test results reported in paper PMC4072508, “Genome-Wide Prediction and Validation of Peptides That Bind Human Prosurvival Bcl-2 Proteins” (PLoS Computational Biology, 2014).

T1: Bfl-1, Q16548
T1 chain: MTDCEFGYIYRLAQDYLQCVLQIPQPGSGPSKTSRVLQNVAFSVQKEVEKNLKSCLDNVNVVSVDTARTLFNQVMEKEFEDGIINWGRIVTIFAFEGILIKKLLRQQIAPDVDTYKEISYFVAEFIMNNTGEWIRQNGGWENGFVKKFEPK

T2: Mcl-1, Q07820
T2 chain: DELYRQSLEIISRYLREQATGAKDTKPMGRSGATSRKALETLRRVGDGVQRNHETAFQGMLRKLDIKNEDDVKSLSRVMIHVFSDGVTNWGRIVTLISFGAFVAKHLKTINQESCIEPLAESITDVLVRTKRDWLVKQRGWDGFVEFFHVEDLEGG

B1: DHX30 (peptide)
chain: PVESSWIAPEDRLQSDDILPLGKDSG
B2: SLC26A4 (peptide)
chain: LSIIYTLVEIFQNIGDTNLADFTAGL
B3: PMAIP1 (peptide)
chain: AELEVECATQLRRFLDKLNFRQKLLN
B4: PRCP (peptide)
chain: DDMFEPHSWNLKELLDDCFQQWGVRP
B5: PRCP (peptide)
chain: DDMFEPHSWNDKELSDDCFQQWGVRP
B6: SLC38A8 (peptide)
chain: LNLLMISVAFDRVIGDQLEKLCDSLL
B7: FBXW5 (peptide)
chain: LTETSLISGNLHRIGDITSCSVLWLN
B8: GBP6 (peptide)
chain: NDDTPWIARTLDNLADELTAILSAPA
B9: GBP6 (peptide)
chain: NDDTPWIARTDDNLADELTAILSAPA
B10: RBL1 (peptide)
chain: WTLFVYTKGNFRMILDDLVNSYHLLL
B11: BBS10 (peptide)
chain: RMIVDCVSSHLKKTGDGAKTFIIFLC
B12: RNF160 (peptide)
chain: WLKGDILGEKLVNLLDCLCNEDLESR
B13: FOXI1 (peptide)
chain: PDKRLTLSQIYQYVADNFPFYNKSKA
B14: WRAP53 (peptide)
chain: RKDAELLCWDDRQSGYPLWSLGREVT
B15: DHX30 (peptide)
chain: PVESSWIAPELRLQLDDILPLGKDSG
B16: CRB1 (peptide)
chain: TGSLCEIATTLSFEGDGFLWVKSGSV
B17: DHX30 (peptide)
chain: PVESSWIAPELRLQSDDILPLGKDSG
B18: TAP1 (peptide)
chain: MSILTIASAVLEFVLDGIYNNTMGHV
B19: ISOC1 (peptide)
chain: AGYELLIQKFLSLYGDQIDMHRKFVV
B20: ZNF295 (peptide)
chain: ERLKGQLCDVDLIVGDQKFRAHKNVL
B21: PRDX4 (peptide)
chain: LDFTFVCPTEIIAFGDRLEEFRSINT
B22: NBEAL2 (peptide)
chain: AELRLFLAQRDRWLCDSCPASRATCV
B23: PURB (peptide)
chain: FKAWGKFGGADCRYADEMKEIQERQR
B24: PRDX4 (peptide)
chain: LDFTFVCPTEDIAFGDRLEEFRSINT
B25: FOXI1 (peptide)
chain: PDKRLTLSQIDQYVADNFPFYNKSKA
B26: PPAT (peptide)
chain: RLRQLGVAKKFGVLLDNFKGKRIVLV
B27: KCNH1 (peptide)
chain: VHKHSRLAEVLQLGLDILPQYKQEAP
B28: TMEM214 (peptide)
chain: SFLSAHCASHLAWFLDSLTSLSQRLQ
B29: NOX4 (peptide)
chain: TETKATFGVHDKIVGDWTERFRDLLL
B30: SYNE1 (peptide)
chain: VTLLSEVEKMLSNFGDCVQYKEIVKN
B31: MCF2L2 (peptide)
chain: ADAIRPRCVEDRHLCDDFINGNKKKW
B32: FBXO30 (peptide)
chain: LCQLSCVSKLDRDVCGSLLQSRGMVI

Target: T1, Bfl-1, Q16548
Experiment: peptide SPOT array, c-Myc-tagged receptor at 1 uM or 100 nM, anti-c-Myc-Cy3

Row | SPOT signal as a fraction of Bim BH3's signal on the same receptor and array | Binder
1 | 0.04 | B1
2 | 0.03 | B2
3 | 0.17 | B3
4 | 0.05 | B4
5 | 0.05 | B5
6 | 0.04 | B6
7 | 0.04 | B7
8 | 0.04 | B8
9 | 0.03 | B9
10 | 0.13 | B10
11 | 0.36 | B11
12 | 0.05 | B12
13 | 0.56 | B13
14 | 0.04 | B14
15 | 0.04 | B15
16 | 0.03 | B16

Row | SPOT signal as a fraction of Bim BH3's signal on the same receptor and array | Binder
17 | 0.04 | B17
18 | 0.04 | B18
19 | 0.06 | B19
20 | 0.07 | B20
21 | 0.03 | B21
22 | 0.33 | B22
23 | 0.76 | B23
24 | 0.03 | B24
25 | 0.42 | B25
26 | 0.69 | B26
27 | 0.07 | B27
28 | 0.08 | B28
29 | 0.07 | B29
30 | 0.06 | B30
31 | 0.07 | B31
32 | 0.11 | B32

Target: T2, Mcl-1, Q07820
Experiment: as above

Row | SPOT signal as a fraction of Bim BH3's signal on the same receptor and array | Binder
33 | 0.04 | B1
34 | 0.07 | B2
35 | 0.1 | B3
36 | 0.04 | B4
37 | 0.04 | B5
38 | 0.04 | B6
39 | 0.04 | B7
40 | 0.04 | B8
41 | 0.04 | B9
42 | 0.11 | B10
43 | 0.17 | B11
44 | 0.06 | B12
45 | 0.56 | B13
46 | 0.04 | B14
47 | 0.04 | B15
48 | 0.04 | B16

Row | SPOT signal as a fraction of Bim BH3's signal on the same receptor and array | Binder
49 | 0.04 | B17
50 | 0.04 | B18
51 | 0.13 | B19
52 | 0.08 | B20
53 | 0.04 | B21
54 | 0.5 | B22
55 | 0.83 | B23
56 | 0.04 | B24
57 | 0.39 | B25
58 | 0.93 | B26
59 | 0.14 | B27
60 | 0.07 | B28
61 | 0.05 | B29
62 | 0.08 | B30
63 | 0.06 | B31
64 | 0.08 | B32

These binders were tested against Bcl-xL, Q07817 in the same assay as above.
Bcl-xL, Q07817, sequence (Q07817 1-209): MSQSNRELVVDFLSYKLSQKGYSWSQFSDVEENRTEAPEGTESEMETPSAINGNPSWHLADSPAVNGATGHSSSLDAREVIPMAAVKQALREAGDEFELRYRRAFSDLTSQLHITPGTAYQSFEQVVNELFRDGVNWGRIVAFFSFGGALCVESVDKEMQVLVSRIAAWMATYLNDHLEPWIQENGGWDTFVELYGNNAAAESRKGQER

Row | SPOT signal as a fraction of Bim BH3's signal on the same receptor and array | Binder
65 | 0.05 | B1
66 | 0.06 | B2
67 | 0.2 | B3
68 | 0.07 | B4
69 | 0.07 | B5
70 | 0.05 | B6
71 | 0.06 | B7
72 | 0.04 | B8
73 | 0.04 | B9
74 | 0.09 | B10
75 | 1 | B11
76 | 0.07 | B12
77 | 1.74 | B13
78 | 0.06 | B14
79 | 0.05 | B15
80 | 0.06 | B16

Row | SPOT signal as a fraction of Bim BH3's signal on the same receptor and array | Binder
81 | 0.05 | B17
82 | 0.06 | B18
83 | 0.13 | B19
84 | 0.16 | B20
85 | 0.06 | B21
86 | 0.34 | B22
87 | 0.66 | B23
88 | 0.06 | B24
89 | 0.84 | B25
90 | 1.27 | B26
91 | 0.12 | B27
92 | 0.08 | B28
93 | 0.05 | B29
94 | 0.11 | B30
95 | 0.15 | B31
96 | 0.14 | B32
